In the DeepSol protein solubility set:

test: soluble on expression in E. coli; label from the status in PepcDB or PDB records

Sequence | soluble on expression in E. coli
SELPRKANRRNSSCSSISSVSESSSPSALDESTLTKILPTDNFRGGRGFASPSPPTSLLSEPLSRMDVLSEKIWDYHNKVSQTDEMLQRKLHLRDMLYTAISPVFPLSGLYVVGSSLNGFGNNSSDMDLCLMITNKDLDQKNDAVVVLNLILSTLQYEKFVESQKLILAKVPILRINFAAPFDDITVDLNANNSVAIRNTHLLCYYSSYDWRVRPLVSVVKEWAKRKGINDANKSSFTSYSLVLMVIHFLQCGPTKVLPNLQQSYPNRFSNKVDVRTLNVTMALEEVADDIDQSLSEKTTLGELLIGFLDYYANEFNYDRDAISIRQGRRVERAALAVRPKIHSNSEGDKETPPPSSSASTSSIHNGGTPGIPMHHSISNPHFWRSQWRCVCIEEPFTNSNTAHSIYDEMVFEAIKKAFREAHGELQHNHDLDKLMECEPIKASTTNTGAAVFAATYEGERPLAQQPNTIACASLRVLNSIPVSSGPGHYHYQQQSNQNLSRPQRPGSNQGYQMNNNRGFNGNNQQQHQNRRSFNNQSSSNPGNGSTGPRSSRSNENVRDSSRQQNSQKGSSGVSVSKENVASTTGVPVDKKQQNSNRKDDGNRTKRSPMVQSPEPAKTKSEKTPMASSNVSQ | soluble
MSLKQEKERILKLVEEGKLTAQEALTLIEKLDSDYKEKEEKITALSVHVHDEEEPFTTAKKESGKPSLGAKLFDWIDSAVKKVKEVDLDLNFGHAYDVQHIFQFKDTDFSSVELQIANGSVNIVPWEDDDIRAECQAKVYRADSQDAARHAFLQHIECEIKGNKFFIRTEKKTMKTNVTLYIPQKEYDKIRVKLFNGPVRGEHLHVKEFSAKTTNGVLSFSYLTAEKAIAETANGQIKLASHSCGTIEAETINGLIDLRGKSESIDVQSFNGNIAINVTESDCRSIYAKTTTGNVELAIPDDLAVKAELKSNLGTLSHELMDVEMLKEKNDTIQKEMMFTSNQAHDQNITVFSESLTGAIKLKYSQREGGSHHHHHH | soluble
MHHHHHHSSGVDLGTENLYFQSNAMANPLYHKHIISINDLSRDELELVLRTAASLKKTPQPELLKHKVIASCFFEASTRTRLSFETSIHRLGASVVGFSDSSNTSLGKKGETLADTMSVISTYVDAIVMRHPQEGASRLAAQFSGNVPIVNAGDGANQHPTQTLLDLFTIQETQGRLDNINIAMVGDLKYGRTVHSLTQALAKFNGNHFFFIAPDALAMPAYILQMLEEKEIEYSLHESLEEVVPELDILYMTRVQKERLDPSEYANVKAQFILRSSDLTGARDNLKVLHPLPRIDEITTDVDKTPYAYYFQQAGNGIFARQALLALVLNAELAL | soluble
MLMLRSPFSDSNVLDHFLDEITGSVQFPYWRNADHNSFNFSDNIGEIVNDESKFSVQLDVSHFKPEDLKIELDGRELKIEGIQEKKSEHGYSKRSFSKMILLPEDVDLTSVKSAISNEGKLQIEAPKKTNSSRSIPINFVAKH | not soluble
MVLVELFGFGPHLMVDGYEANPDRLRDAELIRRVLNELPEEMEMTKVLPPFVYSYGPGGEDGVTGVVIIAESHIAIHTFPKKRFLSVDIFSCKAFDMAKALKKLAEVFEIRRYETYMINRGKEFPKDPELARQIVLGEREYLEARVG | soluble
ARKCSLTGKWTNNLGSIMTIRAVNSRGEFTGTYLTAVADNPGNITLSPLLGIQHKRASQPTFGFTVHWNFSESTTVFTGQCFIDRNGKEVLKTMWLLRSSVNDISYDWIATRVGYNNFTRLSTVEE | soluble
MDYSKIIKEVGRGKNHARDLDQPTAYALYKAMLAGQVPALELGGILIAFRIKGESEQEILGFYQAMQEQVMSLRAPVDRPLPVVIPSYNGARKQANLTPLLALLLSRLGLPVVVHGVTEDSSRVTSAEIFQQLNIPWSLSVQEAQQRLDNGLPVFIPVSALSMQLDQQLQQRWRMGVRNSSHTLAKLATPFTHDKALRVASVSHPEYMQKVGGFFQAISAPGLLLQGTEGEVYANPLRCPPIHYINDGEQTILLDRSSESVVPELPLSKDAVITARWIEGCLAGEQPIPDSILKQLACCLVAAGQADSVELALQQIKIV | not soluble
MHFELNQATHCKNHVVIHNELSPGIILNIACRKGSIDDKPTRFHKLNFKDPSYVIEFEDNYPNDETWYCLLSHGTRPKYWYDIQVYRQGIQPKCNQLRLWIARMDGIWFTRRYESPPGHVLDWKI | not soluble
TESGTAAQDPEALAAEIGPVKQVSLGEQIDAALAQQGEQLFNTYCTACHRLDERFIGPALRDVTKRRGPVYIMNVMLNPNGMIQRHPVMKQLVQEYGTMMTDMALSEEQARAILEYLRQVAENQ | soluble
VVMHPGFGAAALTGATGAAAAAAAAPTPQASPLGGRGTGASAEPATSAHSHGGGGGFGNVVSGTPMETTVSLPPQVSSHAGGRGASGSTDSSAEASTDHKRARTNNPGAGGARAAQAAALPSLDAVTSQQAAAAAGMAPAAGTLGAVPPAYPAVAVAPAAEVNGAMPYVDALTEQLRAVRLLQPTPPSSASSAPVRASAAAMADVTENVAVKAKGKKKGAAAAAAAQPPPPPLLPPAPRTEMDRRAALSGAAGAFMAACDEAVRELLLAMNFSDHDAEAIITGAAPPQLEHAASGVVSLVLRLKSSVLSHYIKHLNNAAARSQAAAASTAAVDGNAEDAADKHGAKATSAAKAPPAAGGGAGDAADQQLSTGEACLVQLQLYGGVGDALLQLLRSKLRGSACQLWALAHIVHPHPSRSEKESLAAYTGKSTKQVTDWFTNWRARHW | not soluble
MAGQIETRQFRTLFISDVHLGSKAAKTDFLLDFLKYHEAETIIMVGDIVDGWRLRRSWYWPQGCNDVVQKLLRKARKGTRIVYIPGNHDEFLREFPGMHFGGIEVAERMIHEAADGKKYLVIHGDEFDVVVRNARLLAYLGDWAYDAAIAINIAIAAVRRRIGLPYWSFSAWAKLQVKHAVNFIGEFQRVVADEARRNNVDGVICGHIHHAIMEDMDGIRYINTGDWVESCTAIAENADGSFELITWMQTSEATAEHASDEMEPVNIPGLIGKHAA | not soluble
RSKTVILAKNLPAGTLAAEIQETFSRFGSLGRVLLPEGGITAIVEFLEPLEARKAFRHLAYSKFHHVPLYLEWAPIGVFGAAPQKKDSQHEQPAEKAE | soluble
GIDPFTMAKKDGAIEVEGRVVEPLPNAMFRIELENGHKVLAHISGKMRQHYIRILPEDRVVVELSPYDLSRGRIVYRYK | soluble
MGSDKIHHHHHHMLKQKTLKDSFSLSGKGLHTGLDLTVTFNPAPDNHGYKIQRIDLEGQPTIDAVADNVTETTRGTVLSKNGVKVSTVEHGMAALYALGIDNCLIQVNGPEFPILDGSAQYYVQEIERVGTEEQSAVKDFYIIKSKIEFRDESTGSSIIVLPDENFSLNVLVSYDSTIIPNQFATLEDMHNFKDEVAASRTFVFVREIEPLLSAGLIKGGDLDNAIVIYERKMSQESYDKLADVMGVPHMDADQLGYINHKPLVWPNECARHKLLDVIGDLALIGKPIKGRIIATRPGHTINNKFARQMRKEIRLHEIQAPTYDCNREPVMDVNRIRELLPHRYPFQLVDKVIEMGASYIVGIKNITANEPFFQGHFPQEPVMPGVLQIEAMAQVGGLLVLNSVDEPERYSTYFMKIDGVKFRQKVVPGDTLLFRVELLAPIRRGISTMKGYAFVGEKVVCEAEFMAQIVKNK | not soluble
MSLRTMLTQKFVVDSMLGKIARWLRIMGYDTLYSNDFEDWKILKIAETQKRIIITRDRGIYYRSLKRGLNCILLSPDSNIIQDLAFIALRSKIDLSVNINATRCPQCNSVLSKLSESMWLCPKCKKEYWKGRHWRTIEEIIIKANSELVKLETKNDSRGTGTDTGVKRRDRTVTNRNSEGHHHHHH | soluble
MNSQNPDDHEDTTVVGFEVPVSPVSSYNNVYSSTEDETRDPPAVPPHLQHSLLGNQGSMELAYAPQNVVLNHLYIENRDAPRSVVALGFSHRFRTKFVTVVIYKPVQRRGSANV | not soluble
MGSDKIHHHHHHMTSSRSRYLSVMGRELHVTEWGDEAAPALVMWHGLARTGRDFDTLAAHFCDRYRVVCPDTLGRGLSGWSRVPRRDYTLAAYMKHALELLGLLGIDRVTWIGTSMGGALGMLLAAGPLAGRMDRLVMNDIGPTLNPVAVERIRNYLAQHPSFRTMTEFEAYLRQVYRPYGFQTDLEWRRMTETSARRRGDGRITPHYDPAVMRVFAETAGDYEAWGEYDLITCPTLVLRGAESDLLLPEVAQEMTRRGPKARLVTVAGCGHAPSLNVPEQIGVIEDFLA | not soluble
GYALTEGEDYLVLDKPIPQEQSGKIEVLEFFGYFCVHCHHFDPLLLKLGKALPSDAYLRTEHVVWQPEMLGLARMAAAVNLSGLKYQANPAVFKAVYEQKIRLENRSVAGKWALSQKGFDGKKLMRAYDSPEAAAAALKMQKLTEQYRIDSTPTVIVGGKYRVIFNNGFDGGVHTIKELVAKVREERKRQTPAVQK | soluble
MTTQNELLNRIAELETKVAFQDNVIEELNQVLIHHQFVLDKLQTQVRHFANKFKNIQSSNVASQAEETPPPHY | soluble
MADPSFASGRLGSRLQGSIAMIAEELLRAGRLDDALKALQEQVRSQPSNATLRIFLFQLLAVMGQWARAQNQLKVVGELDASALPMVQTYSTAIDCEALRREVFAGRLTPVILGQPAEWIAPLLQALSLDAEGHGEAAQALREQAFDAAPAVPGRIGEAPFAWLADADTRLGPVLEVIVNGRYAWLPMSNLRSLKVEAPSDLRDLVWLPAELTLANGGATVALLPARYAETVEHGDDAARLGRKTEWLDSGLPVGQRLFVTDAGETALFDLRELDFEPTDA | not soluble
MSSVELPQVMDDNLISRRKKIMQSIEDIRGKKAEIAQALRELGVGKPQENESVKEDMKLLLAAFDSISAQEAQYMDILKTIVGIHEQATLDIAKDFEKKIEDDAQKLKEQKEKQEEDATEEDENAEKTPEEQANSEVIAELQEALLELKQVSEAAVAASELNEKLVERLQLTKRKKSAMMEVRAKKAKDLDDVATKVRAEVMERINKMAALKKTTTKQEKELKELQKQCLQLGLQLGTDENREIDPAAEEALLDDNQRVPVIVETQEKPDLNDEEKEKRREEIRENIKKEMEKKEQVNTLIREKLASMNARRKRLQEIRKMLEKQEHEKEKLDAAISNSAVAVQNDGEGIALTPETPRPSQEDEAEAPAAAETTVVSAPVAASEDIDEEEDGEVTEKSLDDILENARANLSNLTAMRERLEHIKETGGADLNEDDLTLLERLDNVALEEDEKLTPTP | soluble
MRREERNMDKLLISFLLSLFMVYFPPSDVVLPSQFEASTDSYVPMSSYPQETQSAKTPSPGSMHPAELIKEYSPLAQSVRQLSVKPLDEPLINRLEKALAVPVKYQSNYLRILEHHHHHH | not soluble
MGSDKIHHHHHHMEKKFNLENYLSYGVQNIVKGIIKSTLSNPKESLFMAKYSIASKNAIKLRAEADKIGEHVPPFLIASITSKCNLHCKGCYARHVNSCTDEKTVNQLTDEDWRRVFYEAKDIGVGFILLLGGEPLMRPNVIKIAGEIEDILFPIFTNGTMIDEKYIKLFQKYRNLIPIFSIEGNESNTDKRRGTGIYSEIIKKMNEAYENKIIYGASITVTKENIEEVTSEKFLDKLYSRGCKSVIYVEYVPVSEKEKKIALEGKEREFLKDKLVELRYKYEDILFISFPGDEKSSGGCLAAGRGFFHINFNGGVEPCPFSPYSDTNLKDLSLKEAMNSPLFRKLRKDNVLMEEHSGGCVLFEKEDIVQSLLQK | not soluble
SLVDLAADILVADAHMHTNPTRGLGAREVARRFRREGGWFAALLTLTTWSYGLAPTGVEAYRRMYEIHLRECRAAREEGLRVACFAGIHPAEVDRMIDKHRQPPEKALETALEAVEVLRRLCREGAIDGVGEVGRQHYRTSPLRVAIAEVVLEEAAAAALEEGCLLQLHLENEGPATVETVDRILRRAGATGARRGMVIFHHATLRVAKEAVARGYNATIPGVPKLLEHAAANEPPDYMVESDYLDDPARPGAVVEPWKMAQKLREIASRTPETREWVRRTNIDLVERVFQASPP | not soluble
